Values of other authors as cited in article PMC8602370.

Biological target: PARP1 (Homo sapiens) (UniProt P09874)
Sequence (P09874 2-1014): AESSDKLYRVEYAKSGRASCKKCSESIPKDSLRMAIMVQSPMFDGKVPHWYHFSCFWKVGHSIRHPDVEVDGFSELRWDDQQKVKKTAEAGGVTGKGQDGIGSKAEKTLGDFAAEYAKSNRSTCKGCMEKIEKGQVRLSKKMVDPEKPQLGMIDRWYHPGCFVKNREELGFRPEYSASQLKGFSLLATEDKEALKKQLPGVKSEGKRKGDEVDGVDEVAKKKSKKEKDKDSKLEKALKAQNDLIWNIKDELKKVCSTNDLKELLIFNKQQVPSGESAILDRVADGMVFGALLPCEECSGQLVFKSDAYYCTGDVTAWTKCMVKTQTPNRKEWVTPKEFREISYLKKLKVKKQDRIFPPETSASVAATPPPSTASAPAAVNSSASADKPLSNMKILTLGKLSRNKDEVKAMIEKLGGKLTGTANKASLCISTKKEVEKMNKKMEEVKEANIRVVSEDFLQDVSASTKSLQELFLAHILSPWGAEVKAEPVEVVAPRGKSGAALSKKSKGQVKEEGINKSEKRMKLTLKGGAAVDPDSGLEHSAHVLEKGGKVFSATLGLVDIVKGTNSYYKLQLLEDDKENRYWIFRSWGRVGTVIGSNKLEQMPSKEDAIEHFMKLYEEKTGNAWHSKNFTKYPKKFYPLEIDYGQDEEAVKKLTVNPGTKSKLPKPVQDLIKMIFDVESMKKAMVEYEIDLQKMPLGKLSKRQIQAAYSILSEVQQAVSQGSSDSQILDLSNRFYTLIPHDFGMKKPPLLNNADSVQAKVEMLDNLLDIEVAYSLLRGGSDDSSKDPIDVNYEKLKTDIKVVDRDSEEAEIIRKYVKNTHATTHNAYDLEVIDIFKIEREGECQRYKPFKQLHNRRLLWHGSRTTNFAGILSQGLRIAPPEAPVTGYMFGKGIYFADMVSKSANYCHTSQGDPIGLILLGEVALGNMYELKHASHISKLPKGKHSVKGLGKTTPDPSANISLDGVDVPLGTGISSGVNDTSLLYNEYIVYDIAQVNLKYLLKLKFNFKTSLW

HPF1, sequence (Q9NWY4 whole entry): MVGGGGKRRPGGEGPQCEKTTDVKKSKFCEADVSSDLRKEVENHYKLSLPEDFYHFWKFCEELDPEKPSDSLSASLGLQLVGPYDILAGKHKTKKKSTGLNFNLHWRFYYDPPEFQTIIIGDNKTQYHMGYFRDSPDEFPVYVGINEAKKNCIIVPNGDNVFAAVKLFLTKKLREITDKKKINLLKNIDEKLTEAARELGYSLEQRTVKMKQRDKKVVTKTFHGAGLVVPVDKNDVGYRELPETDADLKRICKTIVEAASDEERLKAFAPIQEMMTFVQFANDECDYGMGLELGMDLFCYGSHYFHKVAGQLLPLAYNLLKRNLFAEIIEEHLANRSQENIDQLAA

HPF1 (from UniProt Q9NWY4)
Kd: 3.5 µM
